Laboratory results taken from US20250257143A1 (FORTE SUBSIDIARY, published 2025).

Experiments:
[1] = molecular target: T1, huCD122-HIS (ARCO Bio | Cat No. CD2-H5221) (human, UniProt P14784 27-239); test: BLI Octet, antibody captured on AHC sensor, huCD122-His analyte, 1:1 fit
T1 construct: Bought analyte of the BLI assay; also called human CD122; not shown: His tag
T1 sequence (looked up): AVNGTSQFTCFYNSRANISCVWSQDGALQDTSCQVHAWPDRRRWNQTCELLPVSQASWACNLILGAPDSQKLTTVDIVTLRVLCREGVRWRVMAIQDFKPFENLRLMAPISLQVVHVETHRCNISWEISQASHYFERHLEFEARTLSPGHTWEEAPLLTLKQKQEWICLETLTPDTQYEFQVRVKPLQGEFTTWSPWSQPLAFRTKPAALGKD
Description: (§1) Based on Bio-Layer Interferometry (BLI), the Octet® BLI system is a fluidics-free instrument platform that enables real-time, label-free analysis for the determination of kinetics, affinity and antibody/protein quantitation. Binding experiments were performed on Octet HTX at 25° C. The analyte used was huCD122-HIS (ARCO Bio | Cat No. CD2-H5221) at a molecular weight of 25.4 kDa. The antibodies were loaded onto Anti-human Fc capture (AHC) sensors. The loaded sensors were dipped into serial dilutions of huCD122-His (Starting at 20 nM, 1:3 dilution, 4 points). Reference sample well (buffer) was used for data analysis. Kinetic constants were calculated using a monovalent (1:1) binding model. The assay buffer used was PBS with 0.1% BSA, […], pH 7.2. The regeneration buffer used was 10 mM Glycine buffer (pH 1.7). The four concentrations of huCD122-His used to determine anti-CD122 antibody binding and dissociation properties were 0.0 nM, 2.2 nM, 6.7 nM, and 20 nM. Sensorgram plots to display antibody binding characteristics were generated. The mouse parental chimera configurations in both IgG1 and IgG4 backbones (M5 IgG1 parental and M5 IgG4 parental) were tested as well as each combination of the humanized 3 HC and 3 LC variants in either an IgG1 or an IgG4 backbone.

[2] = molecular target: T1, huCD122-HIS (ARCO Bio | Cat No. …); test: BLI Octet; reference: parental chimeras (G1, G11)
Description: as §1

[3] = molecular target: T1, huCD122-HIS (ARCO Bio | Cat No. …); test: BLI Octet, antibody captured on AHC sensor, huCD122-His analyte, 1:1 fit; second batch
Description: as §1

| Binder | Kd [1] [nM] | Response [1] | koff [1] [s⁻¹] | kon [1] [M⁻¹ s⁻¹] | fold change in KD against the parental chimera [2] [fold] | Kd [3] [nM] | Response [3] | koff [3] [s⁻¹] | kon [3] [M⁻¹ s⁻¹] |
| --- | --- | --- | --- | --- | --- | --- | --- | --- | --- |
| G15 (antibody, human IgG4 S228P, kappa, Humanized, human IgG4 (S228P), kappa) heavy: not shown light: DIQMTQSPSSLSASVGDRVTITCRASQDISNFLNWYQQKPEGTLKLLIYYTSGLHSGVPSRFSGSGSGTDFTLTISSLQPEDVATYYCQQDNNHPYTFGQGTKLEIKRTVAAPSVFIFPPSDEQLKSGTASVVCLLNNFYPREAKVQWKVDNALQSGNSQESVTEQDSKDSTYSLSSTLTLSKADYEKHKVYACEVTHQGLSSPVTKSFNRGEC | 1.37 | 0.337 | 0.000639 | 466000 | < 3 | 1.33 | 0.312 | 0.000647 | 485000 |
| G12 (antibody, human IgG4 S228P, kappa, Humanized, human IgG4 (S228P), kappa) heavy: not shown light: DIQMTQSPSSLSASVGDRVTITCRASQDISNFLNWYQQKPEGTLKLLIYYTSGLHSGVPSRFSGSGSGTDFTLTISSLQPEDVATYYCQQDNNHPYTFGQGTKLEIKRTVAAPSVFIFPPSDEQLKSGTASVVCLLNNFYPREAKVQWKVDNALQSGNSQESVTEQDSKDSTYSLSSTLTLSKADYEKHKVYACEVTHQGLSSPVTKSFNRGEC | 1.08 | 0.354 | 0.000488 | 451000 | < 3 | 1.43 | 0.334 | 0.000646 | 452000 |
| G5 (antibody, human IgG1, kappa, Humanized, human IgG1 (G1M17), kappa) heavy: not shown light: DIQMTQSPSSLSASVGDRVTITCRASQDISNFLNWYQQKPEGTLKLLIYYTSGLHSGVPSRFSGSGSGTDFTLTISSLQPEDVATYYCQQDNNHPYTFGQGTKLEIKRTVAAPSVFIFPPSDEQLKSGTASVVCLLNNFYPREAKVQWKVDNALQSGNSQESVTEQDSKDSTYSLSSTLTLSKADYEKHKVYACEVTHQGLSSPVTKSFNRGEC | 1.18 | 0.377 | 0.000581 | 494000 | < 3 | – | – | – | – |
| G2 (antibody, human IgG1, kappa, Humanized, human IgG1 (G1M17), kappa) heavy: not shown light: DIQMTQSPSSLSASVGDRVTITCRASQDISNFLNWYQQKPEGTLKLLIYYTSGLHSGVPSRFSGSGSGTDFTLTISSLQPEDVATYYCQQDNNHPYTFGQGTKLEIKRTVAAPSVFIFPPSDEQLKSGTASVVCLLNNFYPREAKVQWKVDNALQSGNSQESVTEQDSKDSTYSLSSTLTLSKADYEKHKVYACEVTHQGLSSPVTKSFNRGEC | 0.831 | 0.372 | 0.000409 | 492000 | < 3 | – | – | – | – |

Continued by falling Kd [1], values first:

| Kd [1] [nM] | Response [1] | koff [1] [s⁻¹] | kon [1] [M⁻¹ s⁻¹] | fold change in KD against the parental chimera [2] [fold] | Kd [3] [nM] | Response [3] | koff [3] [s⁻¹] | kon [3] [M⁻¹ s⁻¹] | Binder |
| --- | --- | --- | --- | --- | --- | --- | --- | --- | --- |
| 0.98 | 0.315 | 0.000453 | 462000 | < 3 | – | – | – | – | G18 (antibody, human IgG4 S228P, kappa, Humanized, human IgG4 (S228P), kappa) heavy: not shown light: DIQMTQSPSSLSASVGDRVTITCRASQDISNFLNWYQQKPEGTLKLLIYYTSGLHSGVPSRFSGSGSGTDFTLTISSLQPEDVATYYCQQDNNHPYTFGQGTKLEIKRTVAAPSVFIFPPSDEQLKSGTASVVCLLNNFYPREAKVQWKVDNALQSGNSQESVTEQDSKDSTYSLSSTLTLSKADYEKHKVYACEVTHQGLSSPVTKSFNRGEC |
| 0.943 | 0.389 | 0.000425 | 450000 | < 3 | – | – | – | – | G8 (antibody, human IgG1, kappa, Humanized, human IgG1 (G1M17), kappa) heavy: not shown light: DIQMTQSPSSLSASVGDRVTITCRASQDISNFLNWYQQKPEGTLKLLIYYTSGLHSGVPSRFSGSGSGTDFTLTISSLQPEDVATYYCQQDNNHPYTFGQGTKLEIKRTVAAPSVFIFPPSDEQLKSGTASVVCLLNNFYPREAKVQWKVDNALQSGNSQESVTEQDSKDSTYSLSSTLTLSKADYEKHKVYACEVTHQGLSSPVTKSFNRGEC |
| 0.795 | 0.326 | 0.000423 | 532000 | – | 0.866 | 0.327 | 0.000491 | 567000 | G11 (antibody, human IgG4 S228P, kappa, Chimeric: mouse parental variable domains in human IgG4 (S228P), kappa; also called M5 IgG4 parental; G11 mouse parental IgG4 chimera) heavy: not shown light: DIQMTQTTSSLSASLGDRVTINCRASQDISNFLNWYQQKPDGTLKLLIYYTSGLHSGVPSRFSGSGSGTDYSLTISNLEEEDIATYFCQQDNNHPYTFGSGTKLEIKRTVAAPSVFIFPPSDEQLKSGTASVVCLLNNFYPREAKVQWKVDNALQSGNSQESVTEQDSKDSTYSLSSTLTLSKADYEKHKVYACEVTHQGLSSPVTKSFNRGEC |
| 0.727 | 0.381 | 0.0004 | 549000 | – | – | – | – | – | G1 (antibody, Chimeric: mouse parental variable domains in human IgG1 (G1M17 allotype), kappa; also called M5 IgG1 parental; G1 mouse parental IgG1 chimera) heavy: not shown light: DIQMTQTTSSLSASLGDRVTINCRASQDISNFLNWYQQKPDGTLKLLIYYTSGLHSGVPSRFSGSGSGTDYSLTISNLEEEDIATYFCQQDNNHPYTFGSGTKLEIKRTVAAPSVFIFPPSDEQLKSGTASVVCLLNNFYPREAKVQWKVDNALQSGNSQESVTEQDSKDSTYSLSSTLTLSKADYEKHKVYACEVTHQGLSSPVTKSFNRGEC |
